According to PMC8849298, “Structure of ATP synthase from ESKAPE pathogen Acinetobacter baumannii” (Science Advances, 2022):

B3: A. baumannii F1Fo-ATP synthase β-subunit, StrepII-tagged (natural protein, Acinetobacter baumannii, UniProt A3M144 1-464, looked up)
chain: MSSGRIIQIIGAVIDVEFERTSVPKIYDALQVDGTETTLEVQQQLGDGVVRTIAMGSTEGLKRGLTVTSTNAPISVPVGTATLGRIMDVLGRPIDEAGPVATEERLPIHRQAPSYAEQAASTDLLETGIKVIDLLCPFAKGGKVGLFGGAGVGKTVNMMELINNIAKAHSGLSVFAGVGERTREGNDFYHEMKDSNVLDKVAMVYGQMNEPPGNRLRVALTGLTMAEYFRDEKDENGKGRDVLLFVDNIYRYTLAGTEVSALLGRMPSAVGYQPTLAEEMGVLQERITSTKSGSITSIQAVYVPADDLTDPSPATTFAHLDATVVLSRDIASSGIYPAIDPLDSTSRQLDPLVVGQEHYEIARAVQNVLQRYKELKDIIAILGMDELAEEDKLVVYRARKIQRFFSQPFHVAEVFTGAPGKLVPLKETIRGFKGLLAGEYDHIPEQAFYMVGGIDEVIAKAEKL
notes: ATP synthase subunit beta, Acinetobacter baumannii; gene at 3815454-3814060 of GenBank CP053098.1, amplified from genomic DNA with a StrepII tag coded at the 5' end; Three copies stand in the complex; also called βDP*; βTP; not shown: StrepII, N-terminal, kept

Assays:
Test in all cases: cryo-EM structure; single-particle cryo-EM of the whole F1Fo-ATP synthase purified from A. baumannii membranes via the StrepII tag on β and reconstituted into peptidiscs; three rotational states; buffer A (50 mM Hepes pH 6.8, 150 mM KCl, 5 mM MgCl2) without detergent
[1] = biological target: T1, A. baumannii F1Fo-ATP synthase γ-subunit (Acinetobacter baumannii ATCC 17978 …, UniProt A3M143 1-289); details: both partners purified
T1 construct: ATP synthase subunit gamma, Acinetobacter baumannii ATCC 17978; source: endogenous, A. baumannii ATCC 17978 membranes
T1 sequence (looked up): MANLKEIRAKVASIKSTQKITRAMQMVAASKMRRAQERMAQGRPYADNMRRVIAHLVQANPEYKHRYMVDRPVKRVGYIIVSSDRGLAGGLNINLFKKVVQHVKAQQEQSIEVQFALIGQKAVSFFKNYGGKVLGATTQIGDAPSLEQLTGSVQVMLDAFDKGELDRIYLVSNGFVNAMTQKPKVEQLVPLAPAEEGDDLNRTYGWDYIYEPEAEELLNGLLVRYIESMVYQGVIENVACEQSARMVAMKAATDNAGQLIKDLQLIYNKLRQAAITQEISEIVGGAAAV

[2] = biological target: T2, A. baumannii F1Fo-ATP synthase α-subunit (Acinetobacter baumannii ATCC 17978 …, UniProt A3M142 1-514); details: both partners purified
T2 construct: ATP synthase subunit alpha, Acinetobacter baumannii ATCC 17978; Three copies stand in the complex (α3β3γδεab2c10); also called αDP; αE; source: endogenous, A. baumannii ATCC 17978 membranes

[3] = biological target: B3; details: both partners purified
[4] = biological target: T3, A. baumannii F1Fo-ATP synthase a-subunit (Acinetobacter baumannii ATCC 17978 …, UniProt A3M137 1-291); details: both partners purified
T3 construct: ATP synthase subunit a, Acinetobacter baumannii ATCC 17978; S5A; also called proton-conducting a-subunit; source: endogenous, A. baumannii ATCC 17978 membranes

[5] = biological target: the molecule itself

T2 sequence (A3M142 whole entry): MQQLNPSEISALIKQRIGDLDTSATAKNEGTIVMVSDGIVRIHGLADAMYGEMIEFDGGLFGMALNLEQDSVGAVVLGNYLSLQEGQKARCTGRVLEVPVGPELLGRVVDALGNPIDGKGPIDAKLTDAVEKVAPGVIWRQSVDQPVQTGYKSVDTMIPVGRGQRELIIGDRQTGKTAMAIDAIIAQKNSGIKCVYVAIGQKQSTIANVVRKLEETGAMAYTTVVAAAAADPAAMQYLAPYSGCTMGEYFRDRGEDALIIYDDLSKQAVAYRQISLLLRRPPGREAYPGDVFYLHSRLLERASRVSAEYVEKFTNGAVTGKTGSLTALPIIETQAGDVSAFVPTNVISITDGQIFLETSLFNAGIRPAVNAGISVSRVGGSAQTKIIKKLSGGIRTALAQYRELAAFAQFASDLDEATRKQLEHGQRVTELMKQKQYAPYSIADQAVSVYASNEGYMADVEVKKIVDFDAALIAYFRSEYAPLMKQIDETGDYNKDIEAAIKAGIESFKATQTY
T3 sequence (A3M137 whole entry): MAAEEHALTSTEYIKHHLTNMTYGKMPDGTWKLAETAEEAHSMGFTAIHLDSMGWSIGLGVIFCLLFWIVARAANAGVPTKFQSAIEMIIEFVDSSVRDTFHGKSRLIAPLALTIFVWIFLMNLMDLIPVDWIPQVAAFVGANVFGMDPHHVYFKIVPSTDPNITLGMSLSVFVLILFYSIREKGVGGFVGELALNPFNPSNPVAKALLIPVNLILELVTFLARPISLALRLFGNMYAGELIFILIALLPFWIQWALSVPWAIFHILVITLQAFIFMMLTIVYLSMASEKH

B1: A. baumannii F1Fo-ATP synthase ε-subunit (natural protein, UniProt A3M145 1-139, looked up)
chain: MATMQCDVVSVKESIYSGAVTMLIAKGAGGELGILPGHAPLVTLLQPGPIRVLLENGTEEIVYVSGGVLEVQPHVVTVLADTAIRADNLDEAAILEARKNAEQLLANQKSDLDSAAALAALAETAAQLETIRKIKNRAQ
notes: ATP synthase subunit epsilon, Acinetobacter baumannii ATCC 17978; also called subunit ε; source: endogenous, A. baumannii ATCC 17978 membranes
binding result [1]: binds
binding result [2]: binds
binding result [3]: binds

B2: A. baumannii F1Fo-ATP synthase c-subunit (c10 ring) (natural protein, UniProt A3M139 1-81, looked up)
chain: MELTLGLVAIASAILIAFGALGTAIGFGLLGGRFLEAVARQPELAPQLQTRMFLIAGLLDAVPMIGVGIGLFFIFANPFVG
notes: ATP synthase subunit c, Acinetobacter baumannii ATCC 17978; also called c-ring; source: endogenous, A. baumannii ATCC 17978 membranes; copies: 10
binding result [4]: binds
stoichiometry N [5]: 10

B3
binding result [2]: binds
